Test results taken from US20120316071A1 (published 2012).
Blank lines part the entries; values can stand above or below the binder they belong to.

Experiments:
[1] = molecular target: T1, rHuman CD44/Fc Chimera, CF (R&D Systems Cat#3660-CD) (human, UniProt P16070 21-220); test: Multispot ECL (MSD) assay, antigen spotted on plate, Fab at 0.0624 µM; blank spot 960
T1 construct: Bought recombinant protein; Fc part of the bought chimera not given

[2] = molecular target: T2, Recombinant Human DLL4 (R&D Systems Cat#1506-D4/CF) (human, UniProt Q9NR61 27-524); test: as above
T2 construct: Bought recombinant protein; also called delta-like protein 4; rHuman DLL4

[3] = molecular target: T3, rHuman ErbB2/Fc Chimera, CF (R&D Systems Cat#1129-ER) (human, UniProt P04626 23-652); test: as above
T3 construct: Bought recombinant protein; also called human epidermal growth factor 2 receptor (ErbB2); Fc part of the bought chimera not given

[4] = molecular target: T4, rHuman ErbB2/Fc Chimera, CF (R&D Systems Cat#1129-ER) (human, UniProt P04626 23-652); test: MSD multispot ECL, antigen spotted on plate, Fab 11 nM; blank spot 212
T4 construct: Bought from R&D Systems; also called human epidermal growth factor 2 receptor (ErbB2); not shown: Fc of the bought chimera

[5] = molecular target: T5, rHuman P-Cadherin/Fc Chimera, CF (R&D Systems Cat#861-PC) (human, UniProt P22223 108-654); test: as above
T5 construct: Bought from R&D Systems; not shown: Fc of the bought chimera

[6] = molecular target: T6, Recombinant Human DLL4 (R&D Systems Cat#1506-D4/CF) (human, UniProt Q9NR61 27-524); test: as above
T6 construct: Bought from R&D Systems; also called rHuman DLL4; delta-like protein 4

[7] = molecular target: T7, rHuman Erythropoietin R/Fc Chimera, CF (R&D Systems Cat#963-ER) (human, UniProt P19235 25-250); test: as above
T7 construct: Bought from R&D Systems; also called EPO R/Fc; Epo R/Fc chimera; not shown: Fc of the bought chimera
T7 sequence (looked up): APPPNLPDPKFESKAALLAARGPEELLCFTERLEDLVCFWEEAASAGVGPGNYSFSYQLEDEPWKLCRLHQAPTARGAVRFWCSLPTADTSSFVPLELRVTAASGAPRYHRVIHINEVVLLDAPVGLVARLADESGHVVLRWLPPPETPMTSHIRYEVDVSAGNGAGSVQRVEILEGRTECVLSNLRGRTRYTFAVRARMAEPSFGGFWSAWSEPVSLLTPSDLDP

[8] = molecular target: T8, rHuman EGF R/Fc Chimera, CF (R&D Systems Cat#344-ER) (human, UniProt P00533 25-645); test: as above
T8 construct: Bought from R&D Systems; also called epidermal growth factor receptor (EGF R); not shown: Fc of the bought chimera

[9] = molecular target: T9, rHuman CD44/Fc Chimera, CF (R&D Systems Cat#3660-CD) (human, UniProt P16070 21-220); test: as above
T9 construct: Bought from R&D Systems; not shown: Fc of the bought chimera

[10] = molecular target: T10, rHuman Notch-1/Fc Chimera, CF (R&D Systems Cat#3647-TK) (human, UniProt P46531 19-526); test: as above
T10 construct: Bought from R&D Systems; not shown: Fc of the bought chimera

[11] = molecular target: T11, rHuman HGF R/c-MET/Fc Chimera, CF (R&D Systems Cat#358-MT/CF) (human, UniProt P08581 25-932); test: Multispot ECL (MSD) titration; antigen spotted on plate; Fab 24.5 nM; blank spot 149
T11 construct: Bought Fc chimera; also called HGF R/Fc; hepatocyte growth factor receptor; Fc part of the bought chimera not given

[12] = molecular target: T12, Recombinant Human DLL4 (R&D Systems Cat#1506-D4/CF) (human, UniProt Q9NR61 27-524); test: as above
T12 construct: Bought recombinant protein; also called delta-like protein 4; rHuman DLL4

[13] = molecular target: T13, rHuman Notch-1/Fc Chimera, CF (R&D Systems Cat#3647-TK) (human, UniProt P46531 19-526); test: as above
T13 construct: Bought Fc chimera; Fc part of the bought chimera not given

[14] = molecular target: T14, rHuman P-Cadherin/Fc Chimera, CF (R&D Systems Cat#861-PC) (human, UniProt P22223 108-654); test: as above
T14 construct: Bought Fc chimera; Fc part of the bought chimera not given

[15] = molecular target: T15, rHuman IGF-1 sR (IGF-1 sR), CF (R&D Systems Cat#391-GR) (human, UniProt P08069 31-932); test: as above
T15 construct: Bought soluble receptor; also called insulin-like growth factor-1 soluble receptor

[16] = molecular target: T16, rHuman CD44/Fc Chimera, CF (R&D Systems Cat#3660-CD) (human, UniProt P16070 21-220); test: as above
T16 construct: Bought Fc chimera; Fc part of the bought chimera not given

[17] = molecular target: T17, rHuman Erythropoietin R/Fc Chimera, CF (R&D Systems Cat#963-ER) (human, UniProt P19235 25-250); test: as above
T17 construct: Bought Fc chimera; also called EPO R/Fc; EPO R; Fc part of the bought chimera not given
T17 sequence (looked up): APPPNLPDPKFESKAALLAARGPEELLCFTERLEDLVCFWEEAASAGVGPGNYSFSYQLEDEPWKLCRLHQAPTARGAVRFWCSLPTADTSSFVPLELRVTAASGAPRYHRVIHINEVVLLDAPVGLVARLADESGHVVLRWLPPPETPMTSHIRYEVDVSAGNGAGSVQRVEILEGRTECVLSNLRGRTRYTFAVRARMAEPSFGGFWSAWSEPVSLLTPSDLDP

[18] = molecular target: T18, rHuman ErbB2/Fc Chimera, CF (R&D Systems Cat#1129-ER) (human, UniProt P04626 23-652); test: as above
T18 construct: Bought Fc chimera; also called human epidermal growth factor 2 receptor; Fc part of the bought chimera not given

T11 sequence (P08581 25-932, change not shown): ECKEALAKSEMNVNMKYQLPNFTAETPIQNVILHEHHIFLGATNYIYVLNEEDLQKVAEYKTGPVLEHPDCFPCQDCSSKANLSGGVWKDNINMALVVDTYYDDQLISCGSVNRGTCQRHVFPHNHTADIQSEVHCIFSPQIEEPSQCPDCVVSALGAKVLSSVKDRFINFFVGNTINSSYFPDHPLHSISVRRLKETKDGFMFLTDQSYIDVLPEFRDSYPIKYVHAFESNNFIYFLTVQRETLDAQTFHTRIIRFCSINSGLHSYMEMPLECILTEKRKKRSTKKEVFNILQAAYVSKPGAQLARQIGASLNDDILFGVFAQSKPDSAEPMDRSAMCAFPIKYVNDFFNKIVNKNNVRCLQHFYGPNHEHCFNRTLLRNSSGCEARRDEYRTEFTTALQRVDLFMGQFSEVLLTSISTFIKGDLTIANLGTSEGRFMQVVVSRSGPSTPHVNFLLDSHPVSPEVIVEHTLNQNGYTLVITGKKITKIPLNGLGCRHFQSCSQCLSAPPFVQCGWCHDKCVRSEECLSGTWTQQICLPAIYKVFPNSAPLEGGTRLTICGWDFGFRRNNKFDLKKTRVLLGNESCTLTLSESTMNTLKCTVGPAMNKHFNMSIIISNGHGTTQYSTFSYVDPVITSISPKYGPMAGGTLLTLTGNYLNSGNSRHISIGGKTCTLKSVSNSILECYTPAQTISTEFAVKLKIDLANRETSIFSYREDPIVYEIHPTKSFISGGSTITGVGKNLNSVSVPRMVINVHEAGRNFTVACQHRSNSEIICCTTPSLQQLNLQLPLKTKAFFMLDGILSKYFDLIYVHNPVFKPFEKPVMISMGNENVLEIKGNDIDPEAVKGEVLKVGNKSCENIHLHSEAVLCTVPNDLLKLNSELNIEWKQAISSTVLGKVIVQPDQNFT

ECL signal [1]: 2110 | ECL signal [2]: 2580 | ECL signal [3]: 2150
B1: Fab VH1-46_IGHD7-27*01_IGHJ2*01 & L6_IGKJ1*01 (Fab, V domains shown)
VH: QVQLVQSGAEVKKPGASVKVSCKASGYTFTSYYMHWVRQAPGQGLEWMGIINPSGGSTSYAQKFQGRVTMTRDTSTSTVYMELSSLRSEDTAVYYCARANWGYWYFDLWGRGTLVTVSS
VL: not shown
notes: Germline Fab made in E. coli; VH was cloned in Plasmid A (CH1 constant region, His6 and Flag tags) and the kappa VL in Plasmid C (kappa CL); Only the variable domains are tied to this Fab by name

ECL signal [4]: 216 | ECL signal [5]: 270 | ECL signal [6]: 254 | ECL signal [7]: 1820 | ECL signal [8]: 201 | ECL signal [9]: 296 | ECL signal [10]: 404
B2: Fab VH1-46_IGHD3-10*01_IGHJ4*01 & B3_IGKJ1*01 (Fab, V domains shown)
VH: QVQLVQSGAEVKKPGASVKVSCKASGYTFTSYYMHWVRQAPGQGLEWMGIINPSGGSTSYAQKFQGRVTMTRDTSTSTVYMELSSLRSEDTAVYYCAREYYYGSGSYYNDYFDYWGQGTLVTVSS
VL: not shown
notes: Tested as a Fab made in E. coli; VH was cloned into Plasmid A (CH1 constant region, His6 and Flag tags); The kappa VL was cloned into Plasmid C (kappa CL)

ECL signal [11]: 211 | ECL signal [12]: 339 | ECL signal [13]: 434 | ECL signal [14]: 257 | ECL signal [15]: 239 | ECL signal [16]: 267 | ECL signal [17]: 4530 | ECL signal [18]: 241
B3: Fab VH1-46_IGHD3-10*01_IGHJ4*01 & O1_IGKJ1*01 (Fab, V domains shown)
VH: QVQLVQSGAEVKKPGASVKVSCKASGYTFTSYYMHWVRQAPGQGLEWMGIINPSGGSTSYAQKFQGRVTMTRDTSTSTVYMELSSLRSEDTAVYYCAREYYYGSGSYYNDYFDYWGQGTLVTVSS
VL: DIVMTQTPLSLPVTPGEPASISCRSSQSLLDSDDGNTYLDWYLQKPGQSPQLLIYTLSYRASGVPDRFSGSGSGTDFTLKISRVEAEDVGVYYCMQRIEFPSWTFGQGTKVEIKR
notes: Germline library Fab expressed in E. coli; VH was cloned into Plasmid A (CH1 constant region, His6 and Flag tags); The kappa VL was cloned into Plasmid C (kappa CL)
